From patent publication US20240010721A1 (HARBOUR BIOMED SHANGHAI, published 2024)
Residue numbers refer to the chain shown, from its start.

B1: PR001355 (antibody, human IgG1, kappa, V domains shown)
VH: QVQLVQSGGGLVQPGGSLRLSCAASGFTFSSYGMHWVRQAPGKGLEWVAVIWYDGSNKDYADSVKGRFTISRDTSKNTLYLQMNSLRAEDTAVYYCVREQARSFDLWGRGTLVTVSS
VL: DIQMTQSPSSLSASVGDRVTITCRASQTMNNWLAWYQQKPGKAPKLLIYKASSLESGVPSRFSGSGSGTEFTLTISSLQPDDSATYYCQQYNSYSPMYTFGQGTKLEIKR
notes: fully human IgG1, kappa
B2: PR001364 (antibody, human IgG1, kappa, V domains shown)
VH: B1 VH with Q1E, V5L, Q6E, L11V, G16R, Y32F, N57D, V97A
VL: B1 VL with Q3V, S10T, M29I, S83F, L106V
notes: fully human IgG1, kappa; also called anti-ROR1 1015M3-D8 hIgG1; PR001364(WT)
B3: PR001356 (antibody, human IgG1, kappa, V domains shown)
VH: B1 VH with Q6E, L11V, G16R, I51A, S56V, N57S, K58E, T74N, S75A, V97A
VL: B1 VL with Q3V, S10T, T28S, M29I, S83F, N92K, L106V
notes: fully human IgG1, kappa; also called anti-ROR1 1015M2-E6 hIgG1; PR001356(WT)
B4: PR001369 (antibody, human IgG1, kappa, V domains shown)
VH: B1 VH with Q6E, L11V, G16R, S31N, M34I, V50I, I51M, K58T, Y80F, V97A
VL: B1 VL with Q3V, S10T, M29I, S83F, L106V
notes: fully human IgG1, kappa; also called anti-ROR1 1015M3-H10 hIgG1; PR001369(WT)
B5: PR001359 (antibody, human IgG1, kappa, V domains shown)
VH: B1 VH with Q6E, L11V, G16R, S31T, I51T, N57D, V97A
VL: B1 VL with Q3V, S10T, T28S, M29V, S83F, N92K, L106V
notes: fully human IgG1, kappa
B6: PR001416 (antibody, human IgG1, kappa, V domains shown)
VH: B1 VH with Q6E, L11V, G16R, S31T, N57D, V97A
VL: B1 VL with Q3V, S10T, M29I, S83F, L106V
notes: fully human IgG1, kappa
B7: PR001418 (antibody, human IgG1, kappa, V domains shown)
VH: B1 VH with Q6E, L11V, G16R, N57D, V97A
VL: B1 VL with Q3V, S10T, M29I, S83F
notes: fully human IgG1, kappa
B8: PR001417 (antibody, V domains shown)
VH: QVQLVESGGGVVQPGRSLRLSCAASGFSFSSYAMHWVRQAPGRGLEWVAVIWYDGGDEDYIDSVKGRFTISRDDSKNTLYLQMNSLRAEDTAVYYCAREQARSFDLWGRGTLVTVSS
VL: B1 VL with I2V, Q3V, S10T, T28S, M29I, N31S, S83F, L106V
notes: fully human IgG1, kappa
B9: PR001415 (antibody, human IgG1, kappa, V domains shown)
VH: B1 VH with Q1E, Q6E, L11V, G16R, S31N, Y32S, V50I, I51M, V97A
VL: B1 VL with Q3V, S10T, M29I, S83F, L106V
notes: fully human IgG1, kappa

What follows are binders tested against T1, human ROR1 (hROR1) on cells (human, UniProt Q01973 30-937) (assay: FACS, A549 cells).
T1 construct: whole, on cells; the cell line is named under assay; also called HEK293T-hROR1; 293T-hROR1
Description: (§1) The binding properties were characterized by FACS. The recombinant antibodies obtained above were serially diluted to 9 different concentrations and incubated for 1 h, and then determined for the binding ability with HEK293T-hROR1, CHO-K1-cynoROR1 and A549 cell lines (endogenously expressing ROR1), respectively. The secondary antibody was then incubated for 1 h. The results are shown in FIG. 4-6 and Table 7-2 below.

T1 sequence (Q01973 30-937): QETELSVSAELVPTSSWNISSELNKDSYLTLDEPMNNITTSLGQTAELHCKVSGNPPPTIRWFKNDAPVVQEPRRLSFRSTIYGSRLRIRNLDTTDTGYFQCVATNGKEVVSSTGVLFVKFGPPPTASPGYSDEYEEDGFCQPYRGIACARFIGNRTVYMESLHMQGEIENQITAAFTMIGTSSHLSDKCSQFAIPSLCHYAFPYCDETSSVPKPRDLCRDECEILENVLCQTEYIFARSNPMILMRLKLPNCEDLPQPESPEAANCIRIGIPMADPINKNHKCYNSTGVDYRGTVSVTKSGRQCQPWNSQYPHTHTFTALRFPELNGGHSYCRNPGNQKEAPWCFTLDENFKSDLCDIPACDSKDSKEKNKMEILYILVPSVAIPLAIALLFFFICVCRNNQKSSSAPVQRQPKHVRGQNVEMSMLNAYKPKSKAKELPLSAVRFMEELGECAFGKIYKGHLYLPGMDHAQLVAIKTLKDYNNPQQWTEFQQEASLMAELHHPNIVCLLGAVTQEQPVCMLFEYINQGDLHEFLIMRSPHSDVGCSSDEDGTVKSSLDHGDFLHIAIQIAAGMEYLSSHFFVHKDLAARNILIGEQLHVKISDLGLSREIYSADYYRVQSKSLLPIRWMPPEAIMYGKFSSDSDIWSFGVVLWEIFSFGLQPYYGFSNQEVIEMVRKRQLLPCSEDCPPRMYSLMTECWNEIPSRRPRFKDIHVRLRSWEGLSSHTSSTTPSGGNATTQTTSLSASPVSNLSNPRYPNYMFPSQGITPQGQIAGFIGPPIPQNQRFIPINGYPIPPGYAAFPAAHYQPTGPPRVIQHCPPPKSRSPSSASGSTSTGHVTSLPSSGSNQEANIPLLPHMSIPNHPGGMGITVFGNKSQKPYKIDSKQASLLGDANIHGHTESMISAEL

Binder | MAX(MFI)
B1 | 4240 MFI
B2 | 3960 MFI
B3 | 4630 MFI
B4 | 3890 MFI
B5 | 3930 MFI

These binders were tested against T1, human ROR1 (hROR1) on cells (assay: FACS, Panc-1 cells).

Binder | MFI
B2 | 4960 MFI
B3 | 5590 MFI
B4 | 6230 MFI

These binders were tested against T1, human ROR1 (hROR1) on cells (assay: FACS, HEK293T-hROR1 cells).
Description: as §1

Binder | fold lower EC50 than reference PR000374
B6 | 10 fold
B1 | 10 fold
B7 | 10 fold
B2 | 10 fold
B3 | 10 fold
B8 | 10 fold
B4 | 10 fold
B5 | 10 fold
B9 | 10 fold

The binders below were run against T1, human ROR1 (hROR1) on cells (assay: cell-based or functional assay).

Binder | ADCC Cytotoxicity (%), Donor 1, 1 nM | ADCC Cytotoxicity (%), Donor 1, 10 nM | ADCC Cytotoxicity (%), Donor 2, 1 nM | ADCC Cytotoxicity (%), Donor 2, 10 nM
B1 | 25.7% | 29% | 14.1% | 14.2%
B5 | 33.7% | 39.5% | 21.9% | 26.1%

Biological target: T1, human ROR1 (hROR1) on cells
Assay: FACS, HEK293T-hROR1 cells
Remark: another data set of the same source

Binder | MFI
B2 | 43100 MFI
B3 | 50900 MFI
B4 | 43800 MFI

Each binder was assayed against T2, cynomolgus ROR1 (cynoROR1) on CHO-K1 cells (cynomolgus, UniProt A0A2K5WTX7 30-937) (assay: FACS, CHO-K1-cynoROR1 cells).
T2 construct: whole, on cells; also called CHO-K1-cynoROR1; CHO-K1-cyROR1
Description: as §1

Binder | MAX(MFI)
B1 | 30000 MFI
B2 | 18200 MFI
B3 | 29700 MFI
B4 | 22200 MFI
B5 | 27200 MFI

What follows are binders tested against T3, ROR1 (antigen of the KD determination and of the Octet dissociation measurement) (UniProt Q01973 30-403, limits assumed) (assay: Octet, antigen form not stated).
T3 sequence (Q01973 30-403 limits assumed): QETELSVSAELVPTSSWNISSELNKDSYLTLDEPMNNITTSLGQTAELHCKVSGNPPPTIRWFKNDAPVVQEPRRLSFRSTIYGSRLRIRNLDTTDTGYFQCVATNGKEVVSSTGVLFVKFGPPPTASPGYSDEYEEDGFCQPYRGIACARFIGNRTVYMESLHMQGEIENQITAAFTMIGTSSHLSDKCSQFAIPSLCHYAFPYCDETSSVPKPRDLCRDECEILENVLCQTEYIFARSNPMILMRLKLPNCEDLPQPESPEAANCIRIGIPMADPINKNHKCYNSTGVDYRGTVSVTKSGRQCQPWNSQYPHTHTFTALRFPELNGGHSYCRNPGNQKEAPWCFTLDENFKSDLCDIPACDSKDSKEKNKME

Binder | Response | koff
B2 | 0.601 | 9.38e-05 s⁻¹
B3 | 0.617 | 0.000152 s⁻¹
B4 | 0.288 | 0.00498 s⁻¹

The binders below were run against T4, hROR2ECD-his (human, UniProt Q01974 34-403) (assay: ELISA, plate coated with hROR2 ECD-his).
T4 construct: extracellular domain; bought, Acrobiosystems R02-H52E5; also called huROR2-his
Description: (§2) Screening by ELISA assay: 96-well plates (Corning 9018) were coated with 1 μg/mL hROR1 ECD-his/hROR2 ECD-his/mROR1 ECD-his proteins prepared with PBS in Example 1a above and incubated at 4° C. overnight. The liquid was then discarded, and the plates were washed 3 times with PBST, blocked with 5% milk for 2 h at room temperature, and washed 3 times with PBST. The taken supernatant was added at 100 μL/well, and the plates were incubated at room temperature for 1 h, followed by washing 3 times with PBST. 100 μL/well of secondary antibody (Sigma, Cat#: A8592) was added, the plates were incubated at room temperature for 1 h, and then washed. TMB was then added to the plates at 100 μL/well and incubated for 15 min at room temperature. Thereafter, the reaction was terminated and data were read.
(§3) a. Results of ELISA assay (the ELISA assay was performed according to the same procedures as in Example 2c, except that the added samples were recombinant antibodies and the secondary antibody was a-Fc (Genscript, Cat#: A01854))
The corresponding values in the table are the measured median fluorescence intensity (MFI).

T4 sequence (Q01974 34-403): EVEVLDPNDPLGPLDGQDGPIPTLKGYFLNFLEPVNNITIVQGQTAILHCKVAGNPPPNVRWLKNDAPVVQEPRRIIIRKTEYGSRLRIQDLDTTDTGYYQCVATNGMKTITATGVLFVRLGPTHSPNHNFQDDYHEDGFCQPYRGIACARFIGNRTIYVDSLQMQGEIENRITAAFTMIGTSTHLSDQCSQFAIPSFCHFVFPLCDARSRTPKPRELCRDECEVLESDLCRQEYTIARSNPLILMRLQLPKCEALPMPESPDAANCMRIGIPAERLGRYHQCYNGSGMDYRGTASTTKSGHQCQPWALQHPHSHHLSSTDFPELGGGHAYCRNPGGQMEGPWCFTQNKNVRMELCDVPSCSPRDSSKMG

Binder | binding result
B6 | no binding
B1 | no binding
B7 | no binding
B2 | no binding
B3 | no binding
B8 | no binding
B4 | no binding
B5 | no binding
B9 | no binding

Each binder was assayed against T5, Human ROR1-ECD-his (human, UniProt Q01973 30-406) (assay: ELISA, plate coated with hROR1 ECD-his).
T5 construct: extracellular domain; bought, Acrobiosystems RO1-H522y; also called hROR1-ECD-his; hROR1 ECD-his
Description: as §2, §3

T5 sequence (Q01973 30-406): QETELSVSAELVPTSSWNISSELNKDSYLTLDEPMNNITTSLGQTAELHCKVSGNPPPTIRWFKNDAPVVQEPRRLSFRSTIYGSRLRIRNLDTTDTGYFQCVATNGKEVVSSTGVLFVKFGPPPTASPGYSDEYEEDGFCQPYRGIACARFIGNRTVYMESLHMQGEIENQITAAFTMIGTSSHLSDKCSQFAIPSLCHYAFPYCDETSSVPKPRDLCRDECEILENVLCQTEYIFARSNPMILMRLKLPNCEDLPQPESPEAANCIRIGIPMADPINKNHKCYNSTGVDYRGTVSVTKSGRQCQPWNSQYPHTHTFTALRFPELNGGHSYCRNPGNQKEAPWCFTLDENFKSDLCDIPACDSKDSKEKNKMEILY

Binder | ELISA signal (called MFI)
B6 | 2.45
B1 | 2.54
B7 | 2.42
B2 | 2.38
B3 | 2.38
B8 | 2.38
B4 | 2.48
B5 | 2.39
B9 | 2.61

Biological target: T4, hROR2ECD-his
Assay: ELISA, plate coated with hROR2 ECD-his
Remark: another data set of the same source
Description: as §2, §3

Binder | ELISA signal (called MFI)
B6 | 0.0265
B1 | 0.0285
B7 | 0.042
B2 | 0.024
B3 | 0.0305
B8 | 0.027
B4 | 0.031
B5 | 0.038
B9 | 0.03

Each binder was assayed against T3, ROR1 (antigen of the KD determination …) (assay: method not stated (conventional procedures)).

Binder | Kd | koff | kon
B6 | 1.27 nM | 0.000342 s⁻¹ | 270000 M⁻¹ s⁻¹
B1 | 0.839 nM | 0.000291 s⁻¹ | 347000 M⁻¹ s⁻¹
B7 | 1.45 nM | 0.000423 s⁻¹ | 292000 M⁻¹ s⁻¹
B2 | 1.2 nM | 0.000376 s⁻¹ | 314000 M⁻¹ s⁻¹
B3 | 0.81 nM | 0.000287 s⁻¹ | 354000 M⁻¹ s⁻¹
B8 | 14.9 nM | 0.00646 s⁻¹ | 433000 M⁻¹ s⁻¹
B4 | 1.69 nM | 0.000519 s⁻¹ | 307000 M⁻¹ s⁻¹
B5 | 2 nM | 0.000637 s⁻¹ | 320000 M⁻¹ s⁻¹
B9 | 1.53 nM | 0.000512 s⁻¹ | 336000 M⁻¹ s⁻¹

The binders below were run against T1, human ROR1 (hROR1) on cells (assay: FACS, HEK293T-hROR1 cells; cytometer saturated).
Description: as §1

Binder | MAX(MFI)
B1 | 262000 MFI
B2 | 262000 MFI
B3 | 262000 MFI
B4 | 262000 MFI
B5 | 262000 MFI

What follows are binders tested against T1, human ROR1 (hROR1) on cells (assay: flow cytometry (FACS) on HEK293T-hROR1 cells, antibody 0.01-100 nM, median fluorescence intensity).
Description: as §1

Binder | EC50 (read off the curve)
B6 | ~2 nM
B7 | ~3 nM
B8 | ~3 nM
B9 | ~3 nM

Each binder was assayed against T2, cynomolgus ROR1 (cynoROR1) on CHO-K1 … (assay: flow cytometry (FACS) on CHO-K1-cynoROR1 cells, antibody 0.01-100 nM, median fluorescence intensity).
Description: as §1

Binder | EC50 (read off the curve)
B6 | ~1 nM
B7 | ~1 nM
B8 | ~2 nM
B9 | ~0.9 nM

These binders were tested against T1, human ROR1 (hROR1) on cells (assay: flow cytometry (FACS) on A549 cells (endogenous ROR1), antibody 0.01-100 nM, median fluorescence intensity).
Description: as §1

Binder | EC50 (read off the curve)
B6 | ~0.4 nM
B7 | ~0.4 nM
B8 | ~0.9 nM
B9 | ~0.4 nM
